From IntAct's records for PubMed 26226295

B1: EH domain-containing protein 3 (Homo sapiens), Q9NZN3 (parent)
chain: MFSWLGTDDRRRKDPEVFQTVSEGLKKLYKSKLLPLEEHYRFHEFHSPALEDADFDNKPMVLLVGQYSTGKTTFIRYLLEQDFPGMRIGPEPTTDSFIAVMQGDMEGIIPGNALVVDPKKPFRKLNAFGNAFLNRFVCAQLPNPVLESISVIDTPGILSGEKQRISRGYDFAAVLEWFAERVDRIILLFDAHKLDISDEFSEVIKALKNHEDKMRVVLNKADQIETQQLMRVYGALMWSLGKIVNTPEVIRVYIGSFWSHPLLIPDNRKLFEAEEQDLFRDIQSLPRNAALRKLNDLIKRARLAKVHAYIISSLKKEMPSVFGKDNKKKELVNNLAEIYGRIEREHQISPGDFPNLKRMQDQLQAQDFSKFQPLKSKLLEVVDDMLAHDIAQLMVLVRQEESQRPIQMVKGGAFEGTLHGPFGHGYGEGAGEGIDDAEWVVARDKPMYDEIFYTLSPVDGKITGANAKKEMVRSKLPNSVLGKIWKLADIDKDGMLDDDEFALANHLIKVKLEGHELPNELPAHLLPPSKRKVAE
partner: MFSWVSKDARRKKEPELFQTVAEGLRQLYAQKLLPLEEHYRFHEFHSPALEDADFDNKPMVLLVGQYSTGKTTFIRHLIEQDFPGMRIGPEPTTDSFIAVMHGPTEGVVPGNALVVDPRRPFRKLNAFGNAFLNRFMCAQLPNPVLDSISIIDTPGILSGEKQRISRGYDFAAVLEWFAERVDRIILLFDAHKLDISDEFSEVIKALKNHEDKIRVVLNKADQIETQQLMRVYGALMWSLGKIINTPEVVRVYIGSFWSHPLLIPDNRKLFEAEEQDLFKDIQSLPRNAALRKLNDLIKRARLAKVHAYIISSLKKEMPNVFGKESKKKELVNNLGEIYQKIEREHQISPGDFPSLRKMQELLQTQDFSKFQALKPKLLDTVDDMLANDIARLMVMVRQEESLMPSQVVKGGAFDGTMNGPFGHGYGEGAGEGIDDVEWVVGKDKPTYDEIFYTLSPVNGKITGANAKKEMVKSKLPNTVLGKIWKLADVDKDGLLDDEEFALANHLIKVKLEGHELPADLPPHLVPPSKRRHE

Variants of: B1
Conditions: with ehd1_human EHD1, Q9H4M9

effect of a mutation on the interaction | Variant
with no effect | MFSWLGTDDRRRKDPEVFQTVSEGLKKLYKSKLLPLEEHYRFHEFHSPALEDADFDNKPMVLLVGQYSTGKTTFIRYLLEQDFPGMRIGPEPTTDSFIAVMQGDMEGIIPGNALVVDPKKPFRKLNAFGNAFLNRFVCAQLPNPVLESISVIDTPGILSGEKQRISRGYDFAAVLEWFAERVDRIILLFDAHKLDISDEFSEVIKALKNHEDKMRVVLNKADQIETQQLMRVYGALMWSLGKIVNTPEVIRVYIGSFWSHPLLIPDNRKLFEAEEQDLFRDIQSLPRNAALRKLNDLIKRARLAKVHAYIISSLRKEMPSVFGKDNKKKELVNNLAEIYGRIEREHQISPGDFPNLKRMQDQLQAQDFSKFQPLKSKLLEVVDDMLAHDIAQLMVLVRQEESQRPIQMVKGGAFEGTLHGPFGHGYGEGAGEGIDDAEWVVARDKPMYDEIFYTLSPVDGKITGANAKKEMVRSKLPNSVLGKIWKLADIDKDGMLDDDEFALANHLIKVRLEGHELPNELPAHLLPPSKRKVAE [K315R;K511R]
with no effect | MFSWLGTDDRRRKDPEVFQTVSEGLKKLYKSKLLPLEEHYRFHEFHSPALEDADFDNKPMVLLVGQYSTGKTTFIRYLLEQDFPGMRIGPEPTTDSFIAVMQGDMEGIIPGNALVVDPKKPFRKLNAFGNAFLNRFVCAQLPNPVLESISVIDTPGILSGEKQRISRGYDFAAVLEWFAERVDRIILLFDAHKLDISDEFSEVIKALKNHEDKMRVVLNKADQIETQQLMRVYGALMWSLGKIVNTPEVIRVYIGSFWSHPLLIPDNRKLFEAEEQDLFRDIQSLPRNAALRKLNDLIKRARLAKVHAYIISSLKKEMPSVFGKDNKKKELVNNLAEIYGRIEREHQISPGDFPNLKRMQDQLQAQDFSKFQPLKSKLLEVVDDMLAHDIAQLMVLVRQEESQRPIQMVKGGAFEGTLHGPFGHGYGEGAGEGIDDAEWVVARDKPMYDEIFYTLSPVDGKITGANAKKEMVRSKLPNSVLGKIWKLADIDKDGMLDDDEFALANHLIKVRLEGHELPNELPAHLLPPSKRKVAE [K511R]
with no effect | MFSWLGTDDRRRKDPEVFQTVSEGLKKLYKSKLLPLEEHYRFHEFHSPALEDADFDNKPMVLLVGQYSTGKTTFIRYLLEQDFPGMRIGPEPTTDSFIAVMQGDMEGIIPGNALVVDPKKPFRKLNAFGNAFLNRFVCAQLPNPVLESISVIDTPGILSGEKQRISRGYDFAAVLEWFAERVDRIILLFDAHKLDISDEFSEVIKALKNHEDKMRVVLNKADQIETQQLMRVYGALMWSLGKIVNTPEVIRVYIGSFWSHPLLIPDNRKLFEAEEQDLFRDIQSLPRNAALRKLNDLIKRARLAKVHAYIISSLRKEMPSVFGKDNKKKELVNNLAEIYGRIEREHQISPGDFPNLKRMQDQLQAQDFSKFQPLKSKLLEVVDDMLAHDIAQLMVLVRQEESQRPIQMVKGGAFEGTLHGPFGHGYGEGAGEGIDDAEWVVARDKPMYDEIFYTLSPVDGKITGANAKKEMVRSKLPNSVLGKIWKLADIDKDGMLDDDEFALANHLIKVKLEGHELPNELPAHLLPPSKRKVAE [K315R]

Variants of: B1
Conditions: with ehd1_human EHD1, Q9H4M9
Remark: another data set of the same source

effect of a mutation on the interaction | Variant
disrupting interaction | MFSWLGTDDRRRKDPEVFQTVSEGLKKLYKSKLLPLEEHYRFHEFHSPALEDADFDNKPMVLLVGQYSTGKTTFIRYLLEQDFPGMRIGPEPTTDSFIAVMQGDMEGIIPGNALVVDPKKPFRKLNAFGNAFLNRFVCAQLPNPVLESISVIDTPGILSGEKQRISRGYDFAAVLEWFAERVDRIILLFDAHKLDISDEFSEVIKALKNHEDKMRVVLNKADQIETQQLMRVYGALMWSLGKIVNTPEVIRVYIGSFWSHPLLIPDNRKLFEAEEQDLFRDIQSLPRNAALRKLNDLIKRARLAKVHAYIISSLRKEMPSVFGKDNKKKELVNNLAEIYGRIEREHQISPGDFPNLKRMQDQLQAQDFSKFQPLKSKLLEVVDDMLAHDIAQLMVLVRQEESQRPIQMVKGGAFEGTLHGPFGHGYGEGAGEGIDDAEWVVARDKPMYDEIFYTLSPVDGKITGANAKKEMVRSKLPNSVLGKIWKLADIDKDGMLDDDEFALANHLIKVRLEGHELPNELPAHLLPPSKRKVAE [K315R;K511R]
decreasing interaction | MFSWLGTDDRRRKDPEVFQTVSEGLKKLYKSKLLPLEEHYRFHEFHSPALEDADFDNKPMVLLVGQYSTGKTTFIRYLLEQDFPGMRIGPEPTTDSFIAVMQGDMEGIIPGNALVVDPKKPFRKLNAFGNAFLNRFVCAQLPNPVLESISVIDTPGILSGEKQRISRGYDFAAVLEWFAERVDRIILLFDAHKLDISDEFSEVIKALKNHEDKMRVVLNKADQIETQQLMRVYGALMWSLGKIVNTPEVIRVYIGSFWSHPLLIPDNRKLFEAEEQDLFRDIQSLPRNAALRKLNDLIKRARLAKVHAYIISSLKKEMPSVFGKDNKKKELVNNLAEIYGRIEREHQISPGDFPNLKRMQDQLQAQDFSKFQPLKSKLLEVVDDMLAHDIAQLMVLVRQEESQRPIQMVKGGAFEGTLHGPFGHGYGEGAGEGIDDAEWVVARDKPMYDEIFYTLSPVDGKITGANAKKEMVRSKLPNSVLGKIWKLADIDKDGMLDDDEFALANHLIKVRLEGHELPNELPAHLLPPSKRKVAE [K511R]
